Measurements from patent US20210324359A1, “USE OF GRAM-NEGATIVE LYSIN-ANTIMICROBIAL PEPTIDE (AMP) POLYPEPTIDE CONSTRUCTS IN TREATING ENDOCARDITIS” (priority 2020, published 2021).
Where two headings read alike, the source gives them in different places.

Columns and labels:
Staphylococcus aureus = test: Daptomycin MIC with […], positive control (Table 10); assay type: cell-based; conditions: for fold increase in MIC with SURVANTA: Staphylococcus aureus
Procedure: As a positive control, the impact of […] ® on daptomycin (DAP) activity against Staphylococcus aureus was also tested.

P. aeruginosa = test: MIC, modified CLSI broth microdilution in CAA medium without or with […] human serum (Table 4); assay type: cell-based, Pseudomonas aeruginosa; conditions: for CAA MIC: CAA medium, no human serum; for CAA/HuS MIC: CAA supplemented with […] human serum; as to CAA/HuS MIC: CAA supplemented with 2.5% human serum
Text: 2015. […] Clinical and Laboratory Standards Institute, Wayne, Pa.

[1] = tested on: Pseudomonas aeruginosa strain CFS-1292 (meropenem resistant); conditions: for MIC in 25% CAA: strain CFS-1292, no added cations; for Fold Increase (MIC) in presence of cations: CFS-1292
Procedure: The activity of selected GN lysins and constructs in the presence of divalent cations was evaluated, and the impact of divalent cations at physiological concentrations was examined in the MIC assay format.

[2] = tested on: P. aeruginosa strain WC-453; test: Time-kill assay in HEPES or CAA with 25% human serum (Tables 7, 8); assay type: cell-based, Pseudomonas aeruginosa; conditions: for bactericidal activity (CFU decrease of 3-Log10, 3 hours after the addition of lysin): 10 μg/mL, enumerated lysins in CAA/HuS, general statement for HEPES and CAA/HuS; for CAA/HuS (Log10 CFU/mL), 1 hr / CAA/HuS (Log10 CFU/mL), 3 hr: CAA + 25% human serum, lysin 10 μg/ml, WC-453
Procedure: Exponential phase bacteria were then pelleted and resuspended in 1/5 culture volume of 25 mM HEPES, pH 7.4 before a final adjustment to an optical density corresponding to a McFarland value of 0.5. […] All treatments were incubated at 37° C. with aeration. At time points before the addition of lysin (or buffer control) and at 1 hour and 3 hours intervals thereafter, culture samples were removed for quantitative plating on CAA agar plates.

[3] = tested on: biofilms formed by P. aeruginosa strain ATCC 17646; conditions: strain ATCC 17646 biofilm
Procedure: Biofilms are then washed and treated with e.g., a 2-fold dilution series of the lysin in TSBg at e.g., 37° C. for 24 hours. After treatment, wells are washed, air-dried at e.g., 37° C. and stained with e.g., 0.05% crystal violet for 10 minutes.

[4] = tested on: carbepenam-resistant clinical isolate WC-453; test: MIC in CAA without or with 25% human serum (Table 5); assay type: cell-based, Pseudomonas aeruginosa
Procedure: MIC values were determined using a modification of the standard broth microdilution reference method defined by the Clinical and Laboratory Standards Institute (CLSI), CLSI. […] Methods for Dilution Antimicrobial Susceptibility Tests for Bacteria That Grow Aerobically; Approved Standard-10th Edition. Clinical and Laboratory Standards Institute, Wayne, Pa.

[5] = tested on: P. aeruginosa isolate CFS-1292; test: MIC in CAA supplemented with a range of […] concentrations (Table 10); assay type: cell-based, Pseudomonas aeruginosa
[6] = tested on: carbapenem-resistant P. aeruginosa strains; test: Resensitization of carbapenem-resistant strains, combinations with imipenem or meropenem (Tables 18-22); assay type: cell-based, Pseudomonas aeruginosa
Procedure: Such resensitization may be determined by combining the present lysins or lysin-AMP polypeptide constructs with an antibiotic in a checkerboard assay as described herein. Antibiotic-resistant bacteria, such as carbapenem-resistant P. aeruginosa, are added to the lysin or lysin-AMP polypeptide construct combination. […] See Clinical and Laboratory Standards Institute (CLSI), CLSI. […] M100 Performance Standards for Antimicrobial Susceptibility Testing; 29th Edition. Clinical and Laboratory Standards Institute, Wayne, Pa., which is herein incorporated by reference in its entirety.
Up to seven carbapenem-resistant isolates were assessed. […] See Clinical and Laboratory Standards Institute (CLSI), CLSI. […] M100 Performance Standards for Antimicrobial Susceptibility Testing; 29th Edition. Clinical and Laboratory Standards Institute, Wayne, Pa.

[7] = 25% CAA + […] CaCl2 and […] MgCl2

Molecule: daptomycin
- fold increase in MIC with SURVANTA (Staphylococcus aureus; 0.09% SURVANTA): 32 fold
- fold increase in MIC with SURVANTA (Staphylococcus aureus; 0.19% SURVANTA): 32 fold
- fold increase in MIC with SURVANTA (Staphylococcus aureus; 1.56% SURVANTA): 128 fold
- fold increase in MIC with SURVANTA (Staphylococcus aureus; 3.15% SURVANTA): 128 fold
- inhibition by pulmonary surfactant (Staphylococcus aureus; SURVANTA 0.09-[…], S. aureus): inhibitory to the activity of DAP

B1: GN329: lysin, SEQ ID NO: 26 (protein)
chain: MITDREYQQAAEMLGVDVPAIKAVTKVEAPVGGFQPTGEPTILYERHQMYRQLQAKGLPTEGHPPDLVNKVAGGYGKYSEQHAKLARAVKIDRDSALESCSWGMFQIMGYHWKLMGYPTLQAFVNAMYASEGAQMDAFCRFIKAQPTTHAALKAHDWAKFARLYNGPGYAKNKYDVKLEKAYAEASG
modifications: Pseudomonas phage KPP10
- CAA MIC (P. aeruginosa): 4 mg/mL
- CAA/HuS MIC (P. aeruginosa): 0.25 mg/mL
- MIC in 25% CAA [1]: 4 µg/mL
- bactericidal activity (CFU decrease of 3-Log10, 3 hours after the addition of lysin) [2]: bactericidal activity
- CAA/HuS (Log10 CFU/mL), 1 hr [2]: 4.4 Log10 CFU/mL
- CAA/HuS (Log10 CFU/mL), 3 hr [2]: <3.7 Log10 CFU/mL
- MBEC [3]: 0.5 µg/mL

B2: GN316: lysin obtained from Klebsiella phage 0507-KN2-1 (SEQ ID NO: 22) (protein)
chain: MAILKIGSKGLEVKNLQTSLNKIGFNLVADGIFGKATDNAVRAVQAGAGLVVDGIAGPKTMYAIRNAGESHQDHLTEADLIDAARELSVDLASIKAVNQVESRGTGFTKSGKIKTLFERHIMYKKLNAKFGQAKANALAQLYPTLVNAKAGGYTGGDAELERLHGAIAIDKDCAYESASYGLFQIMGFNCVICGYDNAEEMFNDFLTGERAQLMAFVKFIKADANLWKALKDKNWAEFARRYNGPAYAQNQYDTKLAAAYKSFS
modifications: (1)..(264) GN316 lysin
- CAA MIC (P. aeruginosa): 16 mg/mL
- CAA/HuS MIC (P. aeruginosa): 0.125 mg/mL
- activity in CAA supplemented with human serum (25%) [4]: active
- CAA MIC ([4]; CAA): 16
- CAA/HuS MIC ([4]; CAA supplemented with 25% human serum): <0.0625
- MIC in 25% CAA [1]: 4 µg/mL
- bactericidal activity (CFU decrease of 3-Log10, 3 hours after the addition of lysin) [2]: bactericidal activity
- CAA/HuS (Log10 CFU/mL), 1 hr [2]: 5.1 Log10 CFU/mL
- CAA/HuS (Log10 CFU/mL), 3 hr [2]: <3.7 Log10 CFU/mL
- MBEC [3]: 1 µg/mL

B3: GN156: GPRRPRRPGRRAPV introduced at the N terminus of GN4 (SEQ ID NO: 126) (protein)
chain: GPRRPRRPGRRAPVRTSQRGIDLIKSFEGLRLSAYQDSVGVWTIGYGTTRGVTRYMTITVEQAERMLSNDIQRFEPELDRLAKVPLNQNQWDALMSFVYNLGAANLASSTLLKLLNKGDYQGAADQFPRWVNAGGKRLDGLVKRRAAERALFLEPLS
- Fold Increase (MIC) in presence of cations ([1]; 25% CAA + […] CaCl2 (high)): 1 fold
- Fold Increase (MIC) in presence of cations ([1]; 25% CAA + […] CaCl2 (low)): 2 fold
- Fold Increase (MIC) in presence of cations ([1]; 25% CAA + […] CaCl2 (medium)): 2 fold
- Fold Increase (MIC) in presence of cations [1, 7]: 2 fold
- Fold Increase (MIC) in presence of cations ([1]; 25% CAA + […] MgCl2 (high)): 2 fold
- Fold Increase (MIC) in presence of cations ([1]; 25% CAA + […] MgCl2 (low)): 2 fold
- Fold Increase (MIC) in presence of cations ([1]; 25% CAA + […] MgCl2 (medium)): 2 fold
- MIC in 25% CAA [1]: 2 µg/mL
- fold increase in MIC with SURVANTA ([5]; 0.09% SURVANTA): 1 fold
- fold increase in MIC with SURVANTA ([5]; 0.19% SURVANTA): 1 fold
- fold increase in MIC with SURVANTA ([5]; 1.56% SURVANTA): 2 fold
- fold increase in MIC with SURVANTA ([5]; 3.15% SURVANTA): 2 fold

B4: GN333: lysin obtained from Delftia sp. (SEQ ID NO: 28) (protein, listed as Delftia sp.)
chain: MALTEQDFQSAADDLGVDVASVKAVTKVESRGSGFLLSGVPKILFERHWMFKLLKRKLGRDPEINDVCNPKAGGYLGGQAEHERLDKAVKMDRDCALQSASWGLFQIMGFHWEALGYASVQAFVNAQYASEGSQLNTFVRFIKTNPAIHKALKSKDWAEFARRYNGPDYKKNNYDVKLAEAYQSFK
- CAA MIC (P. aeruginosa): 8 mg/mL
- CAA/HuS MIC (P. aeruginosa): 0.06 mg/mL
- MIC in 25% CAA [1]: 8 µg/mL
- bactericidal activity (CFU decrease of 3-Log10, 3 hours after the addition of lysin) [2]: bactericidal activity
- CAA/HuS (Log10 CFU/mL), 1 hr [2]: 4.9 Log10 CFU/mL
- CAA/HuS (Log10 CFU/mL), 3 hr [2]: <3.7 Log10 CFU/mL
- MBEC [3]: 1 µg/mL

B5: GN123: lysin obtained from Pseudomonas phage PhiPA3 (SEQ ID NO: 173) (protein)
chain: MTLLKKGDKGDAVKQLQQKLKDLGYTLGVDGNFGNGTDTVVRSFQTKMKLSVDGVVGNGTMSTIDSTLAGIKAWKTSVPFPATNKSRAMAMPTLTEIGRLTNVDPKLLATFCSIESAFDYTAKPYKPDGTVYSSAEGWFQFLDATWDDEVRKHGKQYSFPVDPGRSLRKDPRANGLMGAEFLKGNAAILRPVLGHEPSDTDLYLAHFMGAGGAKQFLMADQNKLAAELFPGPAKANPNIFYKSGNIARTLAEVYAVLDAKVAKHRA
modifications: Pseudomonas phage PhiPA3
- Fold Increase (MIC) in presence of cations ([1]; 25% CAA + […] CaCl2 (high)): 1 fold
- Fold Increase (MIC) in presence of cations ([1]; 25% CAA + […] CaCl2 (low)): 1 fold
- Fold Increase (MIC) in presence of cations ([1]; 25% CAA + […] CaCl2 (medium)): 1 fold
- Fold Increase (MIC) in presence of cations [1, 7]: 1 fold
- Fold Increase (MIC) in presence of cations ([1]; 25% CAA + […] MgCl2 (high)): 1 fold
- Fold Increase (MIC) in presence of cations ([1]; 25% CAA + […] MgCl2 (low)): 1 fold
- Fold Increase (MIC) in presence of cations ([1]; 25% CAA + […] MgCl2 (medium)): 1 fold
- MIC in 25% CAA [1]: 2 µg/mL
- fold increase in MIC with SURVANTA ([5]; 0.09% SURVANTA): 1 fold
- fold increase in MIC with SURVANTA ([5]; 0.19% SURVANTA): 1 fold
- fold increase in MIC with SURVANTA ([5]; 1.56% SURVANTA): 1 fold
- fold increase in MIC with SURVANTA ([5]; 3.15% SURVANTA): 2 fold
- resensitization to carbapenems in synergistic combinations ([6]; imipenem (IPM) and meropenem (MEM), carbapenem-resistant isolates): reductions of IPM and MEM MICS to below breakpoint values
- lysin MIC, Combination ([6]; in combination with imipenem, isolate PA19): 0.125 µg/mL
- lysin MIC, Combination ([6]; in combination with imipenem, isolate PA20): 2 µg/mL
- lysin MIC, Combination ([6]; in combination with imipenem, isolate PA21): 1 µg/mL
- lysin MIC, Combination ([6]; in combination with imipenem, isolate PA22): 1 µg/mL
- lysin MIC, Combination ([6]; in combination with imipenem, isolate PA23): 2 µg/mL
- lysin MIC, Combination ([6]; in combination with imipenem, isolate PA24): 2 µg/mL
- lysin MIC, Combination ([6]; in combination with imipenem, isolate WC-452): 2 µg/mL
- lysin MIC, Combination ([6]; in combination with meropenem, isolate PA19): 0.25 µg/mL
- lysin MIC, Combination ([6]; in combination with meropenem, isolate PA20): 1 µg/mL
- lysin MIC, Combination ([6]; in combination with meropenem, isolate PA21): 1 µg/mL
- lysin MIC, Combination ([6]; in combination with meropenem, isolate PA22): 1 µg/mL
- lysin MIC, Combination ([6]; in combination with meropenem, isolate PA23): 1 µg/mL
- lysin MIC, Combination ([6]; in combination with meropenem, isolate PA24): 0.5 µg/mL
- lysin MIC, Combination ([6]; in combination with meropenem, isolate WC-452): 1 µg/mL
- MIC, Alone ([6]; isolate PA19): 8 µg/mL
- MIC, Alone ([6]; isolate PA20): 16 µg/mL
- MIC, Alone ([6]; isolate PA21): 8 µg/mL
- MIC, Alone ([6]; isolate PA22): 16 µg/mL
- MIC, Alone ([6]; isolate PA23): 8 µg/mL
- MIC, Alone ([6]; isolate PA24): 16 µg/mL
- MIC, Alone ([6]; isolate WC-452): 16 µg/mL
- FICI ([6]; lysin + imipenem, isolate PA19): 0.03
- FICI ([6]; lysin + imipenem, isolate PA20): 0.188
- FICI ([6]; lysin + imipenem, isolate PA21): 0.141
- FICI ([6]; lysin + imipenem, isolate PA22): 0.188
- FICI ([6]; lysin + imipenem, isolate PA23): 0.281
- FICI ([6]; lysin + imipenem, isolate PA24): 0.188
- FICI ([6]; lysin + imipenem, isolate WC-452): 0.188
- FICI ([6]; lysin + meropenem, isolate PA19): 0.046
- FICI ([6]; lysin + meropenem, isolate PA20): 0.094
- FICI ([6]; lysin + meropenem, isolate PA21): 0.156
- FICI ([6]; lysin + meropenem, isolate PA22): 0.125
- FICI ([6]; lysin + meropenem, isolate PA23): 0.156
- FICI ([6]; lysin + meropenem, isolate PA24): 0.094
- FICI ([6]; lysin + meropenem, isolate WC-452): 0.125
